Laboratory results taken from paper doi:10.1101/2020.06.02.131086.

Molecular target: human S100A5 (hA5) (human) (UniProt P33763)
Assay: ITC

Sequence of UniProt P33763 (P33763 whole entry): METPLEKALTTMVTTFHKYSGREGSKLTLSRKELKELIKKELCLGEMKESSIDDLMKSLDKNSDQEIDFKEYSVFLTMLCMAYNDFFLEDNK

Kd: 4.8 µM | dH (kcal · mol^−1): -4.5
Binder: GAGGERWQRVLLSLAEDV [α-1-syn peptide (fragment of human α-1-syntrophin)]
